In the supplement of paper PMC9112550, “Optimization of the antimicrobial peptide Bac7 by deep mutational scanning” (BMC Biology, 2022):

Tested on: Escherichia coli TOP10
Assay: shrunken log2 fold change of peptide-encoding DNA abundance (4.5 h post-induction vs induction); higher = less antimicrobial activity (less host growth inhibition)
Details: time post-induction: 4.5 h; library: site-saturation at positions 5, 18, 19, 20
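Further: peptides expressed intracellularly from a pBAD plasmid library in pooled LB shake-flask culture, induced with 0.3% L-arabinose, DNA abundance read by NGS, three biological replicates, DESeq2 with apeglm shrinkage.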

| Sequence | shrunken log2 fold change |
| --- | --- |
| RRIRPRPPRLPRPRPRPHNSPRP | -0.454 |
| RRIRPRPPRLPRPRPRPHPHPRP | 0.0281 |
| RRIRPRPPRLPRPRPRPHPKPRP | 0.347 |
| RRIRPRPPRLPRPRPRPHQGPRP | -0.213 |
| RRIRPRPPRLPRPRPRPHQVPRP | 0.341 |
| RRIRPRPPRLPRPRPRPHRFPRP | 0.645 |
| RRIRPRPPRLPRPRPRPHRQPRP | -0.149 |
| RRIRPRPPRLPRPRPRPHSAPRP | 0.31 |
| RRIRPRPPRLPRPRPRPHSFPRP | -0.0599 |
| RRIRPRPPRLPRPRPRPHSVPRP | -0.213 |
| RRIRPRPPRLPRPRPRPHTDPRP | -0.327 |
| RRIRPRPPRLPRPRPRPHTPPRP | -0.0561 |
| RRIRPRPPRLPRPRPRPHTTPRP | 0.0817 |
| RRIRPRPPRLPRPRPRPHWCPRP | -0.159 |
| RRIRPRPPRLPRPRPRPHWHPRP | -0.124 |
| RRIRPRPPRLPRPRPRPHWWPRP | 0.507 |
| RRIRPRPPRLPRPRPRPHYVPRP | -0.348 |
| RRIRPRPPRLPRPRPRPIADPRP | 0.0705 |
| RRIRPRPPRLPRPRPRPIAKPRP | 0.0454 |
| RRIRPRPPRLPRPRPRPIAPPRP | 0.265 |
| RRIRPRPPRLPRPRPRPICFPRP | -0.189 |
| RRIRPRPPRLPRPRPRPICLPRP | 2.37 |
| RRIRPRPPRLPRPRPRPIDEPRP | -0.0401 |
| RRIRPRPPRLPRPRPRPIEHPRP | -0.186 |
| RRIRPRPPRLPRPRPRPIFKPRP | -0.0374 |

| Sequence | shrunken log2 fold change |
| --- | --- |
| RRIRPRPPRLPRPRPRPIFQPRP | 0.0149 |
| RRIRPRPPRLPRPRPRPIGSPRP | 0.0547 |
| RRIRPRPPRLPRPRPRPIHHPRP | -0.454 |
| RRIRPRPPRLPRPRPRPIHIPRP | -0.405 |
| RRIRPRPPRLPRPRPRPIKIPRP | -0.319 |
| RRIRPRPPRLPRPRPRPILNPRP | -0.339 |
| RRIRPRPPRLPRPRPRPIMMPRP | -0.199 |
| RRIRPRPPRLPRPRPRPINPPRP | -0.714 |
| RRIRPRPPRLPRPRPRPIPGPRP | 0.0171 |
| RRIRPRPPRLPRPRPRPITMPRP | -0.238 |
| RRIRPRPPRLPRPRPRPIYGPRP | -0.0498 |
| RRIRPRPPRLPRPRPRPIYVPRP | -0.348 |
| RRIRPRPPRLPRPRPRPKACPRP | 0.255 |
| RRIRPRPPRLPRPRPRPKANPRP | 0.0243 |
| RRIRPRPPRLPRPRPRPKDAPRP | 0.164 |
| RRIRPRPPRLPRPRPRPKDEPRP | 0.363 |
| RRIRPRPPRLPRPRPRPKFKPRP | 0.0351 |
| RRIRPRPPRLPRPRPRPKGQPRP | 0.205 |
| RRIRPRPPRLPRPRPRPKGVPRP | 0.000119 |
| RRIRPRPPRLPRPRPRPKHFPRP | 0.328 |
| RRIRPRPPRLPRPRPRPKHKPRP | -0.0938 |
| RRIRPRPPRLPRPRPRPKLLPRP | -0.0549 |
| RRIRPRPPRLPRPRPRPKMTPRP | 0.0519 |
| RRIRPRPPRLPRPRPRPKNAPRP | -0.0349 |
| RRIRPRPPRLPRPRPRPKNGPRP | 0.069 |

| Sequence | shrunken log2 fold change |
| --- | --- |
| RRIRPRPPRLPRPRPRPKPDPRP | 0.0452 |
| RRIRPRPPRLPRPRPRPKQHPRP | -0.0393 |
| RRIRPRPPRLPRPRPRPKQTPRP | 0.327 |
| RRIRPRPPRLPRPRPRPKRTPRP | 0.0584 |
| RRIRPRPPRLPRPRPRPKTMPRP | 0.0176 |
| RRIRPRPPRLPRPRPRPKVFPRP | -0.0552 |
| RRIRPRPPRLPRPRPRPKWAPRP | 0.0222 |
| RRIRPRPPRLPRPRPRPKWVPRP | 0.111 |
| RRIRPRPPRLPRPRPRPKYIPRP | -0.433 |
| RRIRPRPPRLPRPRPRPLAEPRP | 0.322 |
| RRIRPRPPRLPRPRPRPLATPRP | 0.605 |
| RRIRPRPPRLPRPRPRPLCFPRP | 0.354 |
| RRIRPRPPRLPRPRPRPLCPPRP | -0.128 |
| RRIRPRPPRLPRPRPRPLDIPRP | -0.408 |
| RRIRPRPPRLPRPRPRPLESPRP | -0.0234 |
| RRIRPRPPRLPRPRPRPLFPPRP | -0.0198 |
| RRIRPRPPRLPRPRPRPLFTPRP | -0.385 |
| RRIRPRPPRLPRPRPRPLGQPRP | 0.0471 |
| RRIRPRPPRLPRPRPRPLHMPRP | -0.342 |
| RRIRPRPPRLPRPRPRPLKCPRP | -0.131 |
| RRIRPRPPRLPRPRPRPLKFPRP | -0.368 |
| RRIRPRPPRLPRPRPRPLKKPRP | 0.295 |
| RRIRPRPPRLPRPRPRPLKQPRP | 0.0902 |
| RRIRPRPPRLPRPRPRPLMCPRP | -0.122 |
| RRIRPRPPRLPRPRPRPLMQPRP | 0.124 |

| Sequence | shrunken log2 fold change |
| --- | --- |
| RRIRPRPPRLPRPRPRPLMRPRP | 0.761 |
| RRIRPRPPRLPRPRPRPLPCPRP | -0.407 |
| RRIRPRPPRLPRPRPRPLPIPRP | -0.301 |
| RRIRPRPPRLPRPRPRPLPYPRP | -0.31 |
| RRIRPRPPRLPRPRPRPLQYPRP | -0.478 |
| RRIRPRPPRLPRPRPRPLSIPRP | -0.498 |
| RRIRPRPPRLPRPRPRPLVGPRP | 0.408 |
| RRIRPRPPRLPRPRPRPLWIPRP | -0.128 |
| RRIRPRPPRLPRPRPRPLYMPRP | -0.673 |
| RRIRPRPPRLPRPRPRPLYQPRP | -0.0164 |
| RRIRPRPPRLPRPRPRPLYTPRP | -0.37 |
| RRIRPRPPRLPRPRPRPMCVPRP | 0.076 |
| RRIRPRPPRLPRPRPRPMCWPRP | 0.156 |
| RRIRPRPPRLPRPRPRPMERPRP | -0.0425 |
| RRIRPRPPRLPRPRPRPMETPRP | -0.00904 |
| RRIRPRPPRLPRPRPRPMFEPRP | 0.0626 |
| RRIRPRPPRLPRPRPRPMFLPRP | -0.269 |
| RRIRPRPPRLPRPRPRPMFPPRP | 0.0316 |
| RRIRPRPPRLPRPRPRPMFVPRP | -0.254 |
| RRIRPRPPRLPRPRPRPMHMPRP | 0.0173 |
| RRIRPRPPRLPRPRPRPMHYPRP | -0.336 |
| RRIRPRPPRLPRPRPRPMIIPRP | -0.152 |
| RRIRPRPPRLPRPRPRPMKPPRP | 0.00333 |
| RRIRPRPPRLPRPRPRPMLAPRP | 0.281 |
| RRIRPRPPRLPRPRPRPMLEPRP | 0.0664 |

| Sequence | shrunken log2 fold change |
| --- | --- |
| RRIRPRPPRLPRPRPRPMLFPRP | -0.0744 |
| RRIRPRPPRLPRPRPRPMLRPRP | 0.34 |
| RRIRPRPPRLPRPRPRPMNHPRP | -0.11 |
| RRIRPRPPRLPRPRPRPMNNPRP | -0.916 |
| RRIRPRPPRLPRPRPRPMRAPRP | 0.788 |
| RRIRPRPPRLPRPRPRPMRTPRP | 0.357 |
| RRIRPRPPRLPRPRPRPMVVPRP | -0.153 |
| RRIRPRPPRLPRPRPRPMWAPRP | -0.201 |
| RRIRPRPPRLPRPRPRPMWRPRP | -0.0622 |
| RRIRPRPPRLPRPRPRPNAHPRP | 0.247 |
| RRIRPRPPRLPRPRPRPNAMPRP | -0.324 |
| RRIRPRPPRLPRPRPRPNCDPRP | -0.257 |
| RRIRPRPPRLPRPRPRPNCRPRP | -0.000174 |
| RRIRPRPPRLPRPRPRPNDWPRP | 0.0287 |
| RRIRPRPPRLPRPRPRPNEGPRP | 0.0293 |
| RRIRPRPPRLPRPRPRPNENPRP | -0.348 |
| RRIRPRPPRLPRPRPRPNFAPRP | 0.445 |
| RRIRPRPPRLPRPRPRPNFKPRP | -0.225 |
| RRIRPRPPRLPRPRPRPNFRPRP | 0.156 |
| RRIRPRPPRLPRPRPRPNGFPRP | -0.216 |
| RRIRPRPPRLPRPRPRPNHCPRP | -1.08 |
| RRIRPRPPRLPRPRPRPNIAPRP | 0.225 |
| RRIRPRPPRLPRPRPRPNICPRP | -0.799 |
| RRIRPRPPRLPRPRPRPNNNPRP | -0.659 |
| RRIRPRPPRLPRPRPRPNNRPRP | -0.349 |

| Sequence | shrunken log2 fold change |
| --- | --- |
| RRIRPRPPRLPRPRPRPNPMPRP | -0.211 |
| RRIRPRPPRLPRPRPRPNPRPRP | 0.596 |
| RRIRPRPPRLPRPRPRPNQMPRP | -0.129 |
| RRIRPRPPRLPRPRPRPNRCPRP | 0.0358 |
| RRIRPRPPRLPRPRPRPNRDPRP | -0.271 |
| RRIRPRPPRLPRPRPRPNRMPRP | -0.138 |
| RRIRPRPPRLPRPRPRPNSLPRP | -0.272 |
| RRIRPRPPRLPRPRPRPNTWPRP | 0.272 |
| RRIRPRPPRLPRPRPRPNWIPRP | -0.441 |
| RRIRPRPPRLPRPRPRPNWWPRP | 0.717 |
| RRIRPRPPRLPRPRPRPNYCPRP | -0.239 |
| RRIRPRPPRLPRPRPRPNYTPRP | -0.679 |
| RRIRPRPPRLPRPRPRPPAGPRP | 0.506 |
| RRIRPRPPRLPRPRPRPPCDPRP | 0.182 |
| RRIRPRPPRLPRPRPRPPCHPRP | 0.0684 |
| RRIRPRPPRLPRPRPRPPCNPRP | -0.0234 |
| RRIRPRPPRLPRPRPRPPGWPRP | 0.484 |
| RRIRPRPPRLPRPRPRPPHNPRP | 0.242 |
| RRIRPRPPRLPRPRPRPPIYPRP | 0.0772 |
| RRIRPRPPRLPRPRPRPPKCPRP | -0.028 |
| RRIRPRPPRLPRPRPRPPKLPRP | 0.172 |
| RRIRPRPPRLPRPRPRPPKMPRP | 0.401 |
| RRIRPRPPRLPRPRPRPPLGPRP | 0.585 |
| RRIRPRPPRLPRPRPRPPMTPRP | 0.0831 |
| RRIRPRPPRLPRPRPRPPMYPRP | -0.368 |
